Among the data in patent US20240075139A1 are neutralization concentration (GMC, CPE reduction on Vero C1008 cells) values, retold here.

Substitutions are numbered along the chain they refer to.

The chains are these.
B1: 5T0337 (antibody, V domains shown)
VH: EVQLVESGGGLVKPGGSLRISCAASGFTFNNAWMNWVRQSPGKGLEWVGRIKSKSDAGTTDYAAPVKGRFIISRDDSKKTLFLQMNSLKIEDTAIYFCMTGFEHTYSYFDLWGRGTQVTVSS
VL: QSVLTQPPSVSGAPGQRVIISCIGGSSNIGAGYDVKWYQQLLPGTAPRLLIYGNTNRPSGVPDRFSGSKSGTSASLAITGLQAEDEADYYCQSYDSRLRDAWVFGGGTKLTVL
B2: 3T0468 (antibody, V domains shown)
VH: EVQLVESGGHLIQPGGSLRLSCAASGFTFRIYDMHWVRQGRRKGLEWVSAIGAAGDTYYSDSVKGRFTISRENAKSSLYLQMNSLSVGDTAVYYCARAAFGAVYYDNWGQGILVTVSS
VL: EIVLTQSPGTLSLSPGERATLSCRASENVDSRFLVWYQQKVGQAPRLLIYGASRRATGIPDRFSGSGSGTDFALTISRLEPEDLAVYYCQQYGRSPITFGQGTRLEIK
B3: 1T0473 (antibody, V domains shown)
VH: QVQLVQSGAEVKKPGASVKVSCKASGYTFPSYEINWVRQATGQGLEWMGWMDPKSGKTGYAQKFQGRVTMTRNPSISTAYLELSSLRSEDSAVYYCARGNQWFGELLSSYYGLDVWGQGTTVTVSS
VL: EIVLTQSPGTLSLSPGEGATLSCRASQSVSSSFLTWYHQKPGQAPRLLIYGASNRATGVPDRFSGGGSGTDFTLTISRLEPEDFGVYYCQQYGSSLITFGPGTKVDIK
B4: 4T0306 (antibody, V domains shown)
VH: QVQLQQSGPGLVRPSQTLSLICAISGDSVSDNNAAWNWIRQSPSRGLEWLGRTYFRSRWYNDYPESLKGRVIINPDTAENQVSLQLSSVTPGDTAVYYCVREYYDLWNGFYPGGAMDVWGQGTTVTVSS
VL: DIQLTQSPSSLSASVGDRVTITCRASQDISDFLNWFQQKPGKAPKLLIYDVSKLARGVPSRFSGSASGTDFTFTISSLQPEDIATYYCQQYDDLPRTFGQGTKLEIK
B5: 4T0726 (antibody, V domains shown)
VH: QVQLVQSGVEVKEPGASVRVSCKASGYTFTHYGITWVRQAPGQGLEWMGWISGYNGNTDYAQKFQGRITMTTDTSTSTAYMELGRLTSDDTAVYYCARTITMILLGWFDPWGQGTLVTVSS
VL: EIVLTQSPGTLSLSPGERATLSCRASQSVSSNYLAWYQQKPGQAPRLLISGASNRATGLPDGFSGSGSGTDFTLTISRLEPEDFAVFFCQQYGTSPLTFGPGTKVDIK
B6: 4T0784 (antibody, V domains shown)
VH: QVQLVESGGGVVQPGRSLRLSCAASGFTFSTYGVHWVRQAPGKGLEWVGVIWYDGSKKYYADSVKGRFTISRDNSKNTLYLQMNSLRAEDAAVYRCVRGGDLLLLPDSIDYYGMDVWGQGTLVTVSS
VL: KDHDPQAPVSLSASVGDRVTITCRASQGIRNDLGWYQQKPGKAPKRLIYAASSLQSGVPSRFSGSGSGTEFTLTISSLQPEDFATYYCLQHNTYPFSFGPGTKVDIK
B7: 1T0139 (antibody, V domains shown)
VH: QVQLQESGPGLVKPSETLSLTCIVSGGSLSSYYWSWVRQPAGKGLQWIGHIYTTGSTNYNPSLKSRVTMSIDTSKNQFSLRLSSVTAADTAVYYCARESYRYNAYDIHPFDYWGQGTLVTVSS
VL: SYELTQSSSVSVSPGQTASITCSGDKLGDNYVCWYQQKPGQSPTLVIYQDNRRPSGIPERFSGSNSGNTATLTIRGTQALDEADYYCQAWASNTVVFGGGTKLTVL
B8: 4T0578 (antibody, V domains shown)
VH: EVQLVESGGALVQPGGSLRLSCAASGFTFSRYDIHWVRQASGKGLEWVSAIGKAGDAYYAGSVRGRFTISRENAKNSLYLQMNSLRAGDTAVYYCARASFGDLYFDLWGRGTLVTVSS
VL: DIVMTQSPDSLAVSLGERATINCKSSQSLLHSSNNKNSVAWYQQKPGQPPKLLIYWASTREFGVPDRFSGSGSGTDFALTISSLQAEDVAVYVCQQYYNSPLTFGPGTKVDIK
B9: 4m0368 (antibody, V domains shown)
VH: QVQLQESGPGLVKPSGTLSLTCAVSGGSISGTNWWTWVRQPPGRGLEWIGEIYYRGSPNYNPSLKSRVTISVDQSKSQFSLKLTSVTAADTAVYYCLRLSHYGGAWGQGTLVTVSS
VL: DIQLTQSPSSLSASVGDRVTITCRASQSISTYLNWYQQKPGKAPKFLIFSASNLQSGVPSRFSGGGSGTDFTLTISSLQPEDFATYYCQQTYNTPRTFGQGTKVEIK
B10: 5T0223 (antibody, V domains shown)
VH: EVQLVESGGGLVKPGGSLRLSCEASGFTFRNTWMNWVRQAPGKGLEWVGRIKSNTDGGTADYAAPVKGRFTISRDDSKSTLFLEMISLRTEDTGFYYCTKGGPGAHSWGLGTLVTVSS
VL: QSVLTQPPSVSGAPGQRVTISCTGSSSNIGAGYDVQWYQQLPGTAPKVLIYHNTNRPSGVPDRFSGSRSGTSASLVITGLQAEDEADYYCQTYDSRLSDHWVFGGGTKLTVL
B11: 5T0180 (antibody, V domains shown)
VH: EVQLVESGGGLVKPGGSLRLSCAASGFSFGNAWMNWVRQAPGKGLEWVGRIKSKSDGGTTDYAAPVKDRFIISRDDSKKTLYLQMNSLRREDTAVYYCVRGPFYCDTCGPNDYWGQGTLVTVSS
VL: B10 VL with H52G, T54N, R68K, T71S, V76A, S98R, H100Q
B12: 5T0202 (antibody, V domains shown)
VH: EVQLVESGGGLVKPGGSLRLSCGASGFSFNDAWMNWVRQAPGKGLEWVGRIKSKADGGGSDTAAPVKGRFIISRDDSKNTLFLQMERLKSEDTGVYYCTTSLNIWGTYRDCWGQGTLVTVSS
VL: QSVLTQPPSVSGAPGQRVTISCTGSYSNIGAGYDVRWYQQLPETAPKLLIYGNNNRPSGVPDRFSGSKSGTSASLAITGLQAEDEADYYCQSYDSRLRDSWVFGGGTRLTVL
B13: 1T0201 (antibody, V domains shown)
VH: EVQLVESGGGLVKPGGSLRLSCAAAGFSFSKAWMNWVRQAPGKGLEWVGRIKSKTDGGTTDYTAPVKGRFIISRDDSKNMLYLQMNSLKAEDTAVYWCTTRVDMEWGKYGTDVWGQGTTVTVSS
VL: B12 VL with Y26S, R36H, Q40K, E43G, G52D, N53K, N55I, T71V, R98S, R108K
B14: 3T0258 (antibody, V domains shown)
VH: QVQLVQSGAEVKQPGASVKVTCKASGSTRSSYDLIWVRQAPGQGLELMGRVNTHNGNTDYAQKFQGRVTMTTDTSTTTAHMELRNLRSDDTAVYYCAWRRSSWFAFDVWGQGTAVTVSS
VL: EIVLTQSPGTLSLSPGERGTLSCRASQSISGNYLGWYQQSPGQAPRLLIYGASNRATGVPDRFSGSGSGTDFTLTISRLEPEDFAVYYCQQYVSSPYTFGQGTKLEIK
B15: 3T0265 (antibody, V domains shown)
VH: EVQLVESGGNLAKPGGSLRLSCAASGFTFSDAWMTWVRQAPGKGLEWVGRIKSNADGGATEYAAPVRGRFTISRDDSRSSLFLQMNSLKTEDTAVYYCLTPPPRRYWGQGILVTVSS
VL: QSVLTQPPSVSGAPGQRVAISCTGSYSNIGAGYDVHWYQQFPGAAPKLLIYAYTNRPAGVPDRFSGSKSGSSASLVISGLQADDEADYYCQSYDARLRDGEVFGGGTKLTV
B16: 4T0570 (antibody, V domains shown)
VH: QVQLVQSGAEVKKPGASIKVSCKASGYTFVSKYIHWVRQAPGQGLEWMGIINPSGGRTDYAQKFQGRVTISRDTSTSTVYMELSSLRSEDTAFYYCARALPFRVTGARDVFDIWGQGTMVTVSS
VL: DIQMTQSPSSLSASVGDRVTITCRASQGISTNLAWFQQRPGKAPKSLVYAASTLQNGVPSKFSGSGSGTDFTLTISSLQPEDFATYYCQQYYTYPLTFGGGTKVEIK
B17: 4T0429 (antibody, V domains shown)
VH: QVQLQQWGAGLLKPSETLSLTCAVYRGSFITYYWSWVRQPPGRGLEWIGEIYKDGSASYNPSLKNRVTISLDMSKNHFSLNLDSVTAADTAVYYCARHGHTGMDVWGQGTTVTVSS
VL: QSVLTQPPSTSGTPGQRVTISCSGSSSNIGLNYVYWYQQLPGTAPKLLIYRNNQRPSGVPDRFSGSKSGTSASLAISGLRSEDEADYYCAAWDDSLSAYIFGTGTKVTVL
B18: 1T0655 (antibody, V domains shown)
VH: QVQLVQSGAEVKKPGASVKVSCKASGYTFTSYYMHWVRQVPGQGLEWMGIIKAGNGGTNYAQNFQGRITVTRDTSTSTVYMELSSLRSEDTAVYYCARDRQWLPLNGYSYFNYGMDVWGQGTTVTVSS
VL: DIQMTQSPSSLSASVGDKITITCRASQSISTYLNWYQQRPGRAPKLLIFGASSLQSGVPSRFSGSGSGTVFTLSISSLQPDDFGSFYCQQSFSSPRTFGQGTKVEIK
B19: 5T0376 (antibody, V domains shown)
VH: QVQLQESGPGLVKPSETLSLTCSVSGASISTLYWSWIRQPPGKGLEWIGYMHSSGTTNYNPSLESRVTMSIDTSRNQFSLKLTSVTAADTAVYYCARGLLGPGDSWGQGTLVTVSS
VL: QSALTQPASVSGSPGQSITISCTGTSSDVGGYNYVSWYQQYPGKAPKLMIYEVTSRPSGVSNRFSGSKSGNTASLTISGLQAEDEGDYYCSSYKTGSTPVVFGGGTKLTVL
B20: 1T0451 (antibody, V domains shown)
VH: QVQLVQSGAEVKKPGASVKISCEASGYNFNGYVIDWVRQAPGQRLEWMGWINPGNGNTKFSPKFQGRVTFTRAASASTAYMELSSLTSEDTALYFCARGRGTSYYYAFDVWGQGTTVTVSS
VL: DIQMTQFPSSLSASVGDRVTISCRASQNISNYLNWYQQKPGKAPKFLIYAASNLQSGVPSRFSGSGSGTGFTLTISNLQPEDFAIYYCQQTYRSPLYTFGQGTKLEIK

For the experiment, the target named is EBOV Mayinga (GenBank: NC_002549) (Zaire Ebolavirus (EBOV Mayinga)) (UniProt Q05320). Nature of the experiment: cell-based or functional assay.
Chain of UniProt Q05320 (Q05320 33-676 limits assumed): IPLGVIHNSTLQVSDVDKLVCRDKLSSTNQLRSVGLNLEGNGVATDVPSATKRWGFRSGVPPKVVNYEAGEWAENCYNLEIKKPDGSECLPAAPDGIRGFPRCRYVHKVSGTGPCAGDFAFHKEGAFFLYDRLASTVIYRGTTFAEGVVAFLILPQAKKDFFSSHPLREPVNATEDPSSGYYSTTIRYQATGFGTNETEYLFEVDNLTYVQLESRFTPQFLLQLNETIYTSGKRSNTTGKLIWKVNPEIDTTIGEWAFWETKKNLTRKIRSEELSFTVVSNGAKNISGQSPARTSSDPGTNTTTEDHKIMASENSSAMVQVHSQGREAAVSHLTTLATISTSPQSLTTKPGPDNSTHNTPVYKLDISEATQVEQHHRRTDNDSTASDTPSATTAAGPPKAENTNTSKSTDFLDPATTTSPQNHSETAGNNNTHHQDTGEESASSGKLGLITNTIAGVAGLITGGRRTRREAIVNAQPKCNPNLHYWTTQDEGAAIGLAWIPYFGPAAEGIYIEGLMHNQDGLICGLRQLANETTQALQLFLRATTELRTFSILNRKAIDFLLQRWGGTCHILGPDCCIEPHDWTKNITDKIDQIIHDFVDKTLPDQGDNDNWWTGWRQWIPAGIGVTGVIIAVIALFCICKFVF
Consider B1, for which the neutralization concentration (GMC, CPE reduction on Vero C1008 cells) is 2.21 µg/mL.
On to B2, for which the neutralization concentration (GMC, CPE reduction on Vero C1008 cells) was 2.1 µg/mL.
To B3 belongs 2.63 µg/mL; to B4, 100 µg/mL; to B5, 2.56 µg/mL.
To B6 belongs 1.86 µg/mL; to B7, 7.44 µg/mL; to B8, 0.45 µg/mL.
To B9 belongs 0.13 µg/mL.
The molecule B10 yielded a neutralization concentration (GMC, CPE reduction on Vero C1008 cells) of 1.86 µg/mL.
With B11, the neutralization concentration (GMC, CPE reduction on Vero C1008 cells) came out at 12.5 µg/mL.
Consider B12, for which the neutralization concentration (GMC, CPE reduction on Vero C1008 cells) turned out to be 2.5 µg/mL.
The figure for B13 is 2.63 µg/mL.
Consider B14, for which the neutralization concentration (GMC, CPE reduction on Vero C1008 cells) is 0.06 µg/mL.
As to B15, the neutralization concentration (GMC, CPE reduction on Vero C1008 cells) stood at 0.44 µg/mL.
Take B16: the neutralization concentration (GMC, CPE reduction on Vero C1008 cells) came to 0.09 µg/mL.
B17 showed a neutralization concentration (GMC, CPE reduction on Vero C1008 cells) of 35 µg/mL.
The figure for B18 is 0.08 µg/mL; for B19 it is 12.5 µg/mL.
To B20 belongs 2.5 µg/mL.
